Article PMC12719470

Target: Nanobody-161 IgG1 Y105G
Assay: BLI; 30 nM Nanobody-161 IgG1 or mutant immobilised on Protein A biosensors (Gator); 4800 nM-300 nM TNFR2-His in Q Buffer (PBS, 0.02% Tween 20, 0.2% BSA); 25 °C; association 120 s, dissociation 180 s; global 1:1 Langmuir fit

TNFR2-His protein, sequence (P20333 23-461): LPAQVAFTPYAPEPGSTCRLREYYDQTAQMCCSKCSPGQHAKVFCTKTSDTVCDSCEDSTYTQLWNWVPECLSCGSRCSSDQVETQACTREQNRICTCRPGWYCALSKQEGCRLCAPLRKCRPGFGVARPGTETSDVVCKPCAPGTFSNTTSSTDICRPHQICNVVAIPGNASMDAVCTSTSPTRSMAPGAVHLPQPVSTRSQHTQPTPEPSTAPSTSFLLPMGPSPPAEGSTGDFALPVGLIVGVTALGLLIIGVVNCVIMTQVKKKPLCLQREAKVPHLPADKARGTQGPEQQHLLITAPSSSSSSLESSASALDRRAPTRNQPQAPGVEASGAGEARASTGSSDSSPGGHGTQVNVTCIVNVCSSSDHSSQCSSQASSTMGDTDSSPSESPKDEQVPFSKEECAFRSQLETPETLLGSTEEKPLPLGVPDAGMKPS
Nanobody-161 IgG1 Y105G, sequence (heavy, as listed by the source): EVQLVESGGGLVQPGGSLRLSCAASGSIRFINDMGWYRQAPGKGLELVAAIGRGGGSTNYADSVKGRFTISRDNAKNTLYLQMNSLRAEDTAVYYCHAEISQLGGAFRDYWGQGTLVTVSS

Kd: 214 µM
koff: 0.0917 s⁻¹
kon: 429 M⁻¹ s⁻¹
Substance: TNFR2-His protein (from UniProt P20333 23-461) (receptor)
